The results in this text go back to patent US20260265361A1 (PHRONTLINE BIOPHARMA SUZHOU, published 2026).

Assay [1] has as its target T1, recombinant human FcγRI protein (ACRO Biosystems, Cat. FCA-H52H1) (human, UniProt P12314 16-288, limits assumed).
T1 construct: also called human FcγRI receptor
As to the kind of experiment: BLI (ForteBio Octet Red 96), human FcγRI immobilised on HIS1K sensors, 100 nM antibody; FcγRI table, column Kdis.

The target of assay [2] is T1, recombinant human FcγRI protein (ACRO …). Put plainly: BLI (ForteBio Octet Red 96), human FcγRI immobilised on HIS1K sensors, 100 nM antibody; FcγRI table. (In BLI a coated tip is dipped into the sample, and binding shifts an interference pattern.)
Assay [3] addresses T2, Recombinant human EGFR protein (ACRO Biosystems, EGR-H5222) (human, UniProt P00533 25-645).
T2 construct: Bought protein
As to the kind of experiment: ELISA, plate coated with recombinant human EGFR at 1 µg/mL, HRP-labelled secondary antibody, OD450; EGFR panel, table under the curves (unit from the concentration axis). For orientation: An ELISA detects its analyte on a solid surface through an enzyme-linked reagent.

In assay [4] the target is T3, recombinant human FcRn (ACROBiosystems Cat FCM-H8286) (human, UniProt P55899 24-297; P61769 21-119).
T3 construct: also called human FcRn receptor
Put plainly: BLI (ForteBio Octet Red 96), human FcRn immobilised on SA sensors, pH 6.0 buffer, 100 nM antibody; FcRn table, column Kdis.

Assay [5] has as its target T3, recombinant human FcRn (ACROBiosystems …). Put plainly: BLI (ForteBio Octet Red 96), human FcRn immobilised on SA sensors, pH 6.0 buffer, 100 nM antibody; FcRn table.

T1 sequence (P12314 16-288 limits assumed): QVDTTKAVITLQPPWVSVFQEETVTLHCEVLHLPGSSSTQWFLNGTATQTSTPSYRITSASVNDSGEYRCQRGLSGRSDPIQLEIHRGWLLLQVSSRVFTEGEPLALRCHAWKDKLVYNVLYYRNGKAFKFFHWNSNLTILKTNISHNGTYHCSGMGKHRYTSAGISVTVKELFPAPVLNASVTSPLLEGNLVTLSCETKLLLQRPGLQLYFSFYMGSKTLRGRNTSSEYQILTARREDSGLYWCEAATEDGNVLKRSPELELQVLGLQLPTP
T3 sequence (P55899 24-297 limits assumed, chain 1 of 2): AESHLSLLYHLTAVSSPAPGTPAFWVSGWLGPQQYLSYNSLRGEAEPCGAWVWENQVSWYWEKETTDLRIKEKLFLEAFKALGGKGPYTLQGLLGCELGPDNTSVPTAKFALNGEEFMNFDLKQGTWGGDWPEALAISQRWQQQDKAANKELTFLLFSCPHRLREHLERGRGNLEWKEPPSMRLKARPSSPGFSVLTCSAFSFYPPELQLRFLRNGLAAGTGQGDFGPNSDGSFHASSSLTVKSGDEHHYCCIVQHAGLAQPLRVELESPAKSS
T3 sequence (P61769 21-119 limits assumed, chain 2 of 2): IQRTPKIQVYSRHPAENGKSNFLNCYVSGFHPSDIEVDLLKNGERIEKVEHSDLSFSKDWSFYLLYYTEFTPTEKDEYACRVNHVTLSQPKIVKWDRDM

B1: Fab-Fc/Fab-Fc bispecific antibody (zalutumumab anti-EGFR A half-antibody / pertuzumab anti-HER2 B half-antibody), M1 combination (K2/H2) (bispecific antibody)
heavy 1: not shown
light 1: not shown
heavy 2: EVQLVESGGGLVQPGGSLRLSCAASGFTFTDYTMDWVRQAPGKGLEWVADVNPNSGGSIYNQRFKGRFTLSVDRSKNTLYLQMNSLRAEDTAVYYCARNLGPSFYFDYWGQGTLVTVSSASTKGPSVFPLAPSSKSTSGGTAALGCLVKDYFPEPVTVSWNSGALTSGVHTFPAVLQSSGLYSLSSVVTVPSSSLGTQTYICNVNHKPSNTKVDKKVEPKSCDKTHTCPPCPAPELLGGPSVFLFPPKPKDTLMISRTPEVTCVVVDVSHEDPEVKFNWYVDGVEVHNAKTKPREEQYNSTYRVVSVLTVLHQDWLNGKEYKCKVSNKALPAPIEKTISKAKGQPREPQVYTLPPSREEMTKNQVSLSCAVKGFYPSDIAVEWESNGQPENNYKTTPPVLRSDGSFFLVSKLTVDKSRWQQGNVFSCSVMHEALHNHYTQKSLSLSPGK
light 2: not shown
notes: No linker named between Fab and Fc; also called M1 mutant combination
On to B1, for which the koff (commonly the first-order rate constant of dissociation) in assay [1] amounted to 0.00461 s⁻¹; in assay [4], 0.0261 s⁻¹. In addition, the Kd (in general, the concentration at which binding is half-saturated) worked out at 10 nM in assay [2] and 14.4 nM in assay [5]. Also, the figures for the on-rate constant (kon) in assay [2] and in assay [5] were 459000 M⁻¹ s⁻¹ and 1.82e+06 M⁻¹ s⁻¹, respectively. Besides, the EC50 – broadly, the midpoint of the concentration-response curve – in assay [3] was 0.017 µg/mL.

B2: Fab-Fc/Fab-Fc bispecific antibody (zalutumumab anti-EGFR A half-antibody / pertuzumab anti-HER2 B half-antibody), M3 combination (K2/H7) (bispecific antibody)
heavy 1: not shown
light 1: not shown
heavy 2: EVQLVESGGGLVQPGGSLRLSCAASGFTFTDYTMDWVRQAPGKGLEWVADVNPNSGGSIYNQRFKGRFTLSVDRSKNTLYLQMNSLRAEDTAVYYCARNLGPSFYFDYWGQGTLVTVSSASTKGPSVFPLAPSSKSTSGGTAALGCLVKDYFPEPVTVSWNSGALTSGVHTFPAVLQSSGLYSLSSVVTVPSSSLGTQTYICNVNHKPSNTKVDKKVEPKSCDKTHTCPPCPAPELLGGPSVFLFPPKPKDTLMISRTPEVTCVVVDVSHEDPEVKFNWYVDGVEVHNAKTKPREEQYNSTYRVVSVLTVLHQDWLNGKEYKCKVSNKALPAPIEKTISKAKGQPREPQVYTYPPSREEMTKNQVSLSCAVKGFYPSDIAVEWESNGQPENNYKTTPPVLRSDGSFFLVSKLTVDKSRWQQGNVFSCSVMHEALHNHYTQKSLSLSPGK
light 2: not shown
notes: No linker named between Fab and Fc; also called M3 mutant combination
Turning to B2, the dissociation rate constant (koff) in assay [1] is 0.00471 s⁻¹; in assay [4], 0.0274 s⁻¹. Moreover, the Kd in assay [2] was 10.3 nM; in assay [5], 17.7 nM. Further, the on-rate constant (kon) (commonly the second-order rate constant of association) in assay [2] was found to be 455000 M⁻¹ s⁻¹; in assay [5], 1.55e+06 M⁻¹ s⁻¹. Also, the 50% effective concentration (EC50) in assay [3] is 0.0221 µg/mL.

B3: Fab-Fc/Fab-Fc bispecific antibody (zalutumumab anti-EGFR A half-antibody / pertuzumab anti-HER2 B half-antibody), M2 combination (K0/H8) (bispecific antibody)
heavy 1: not shown
light 1: not shown
heavy 2: EVQLVESGGGLVQPGGSLRLSCAASGFTFTDYTMDWVRQAPGKGLEWVADVNPNSGGSIYNQRFKGRFTLSVDRSKNTLYLQMNSLRAEDTAVYYCARNLGPSFYFDYWGQGTLVTVSSASTKGPSVFPLAPSSKSTSGGTAALGCLVKDYFPEPVTVSWNSGALTSGVHTFPAVLQSSGLYSLSSVVTVPSSSLGTQTYICNVNHKPSNTKVDKKVEPKSCDKTHTCPPCPAPELLGGPSVFLFPPKPKDTLMISRTPEVTCVVVDVSHEDPEVKFNWYVDGVEVHNAKTKPREEQYNSTYRVVSVLTVLHQDWLNGKEYKCKVSNKALPAPIEKTISKAKGQPREPQVYTYPPSREEMTKNQVSLSCAVKGFYPSDIAVEWESNGQPENNYKTTPPVLDSDGSFFLVSKLTVDKSRWQQGNVFSCSVMHEALHNHYTQKSLSLSPGK
light 2: not shown
notes: No linker named between Fab and Fc; also called M2 mutant combination
Consider B3, for which the values for the koff in assay [1] and in assay [4] were 0.00453 s⁻¹ and 0.0296 s⁻¹, respectively. For the same molecule, the Kd in assay [2] came to 10 nM; in assay [5] it was 17.6 nM. In addition, the kon in assay [2] was found to be 452000 M⁻¹ s⁻¹; in assay [5] it was 1.69e+06 M⁻¹ s⁻¹. For the same molecule, in assay [3], the EC50 was 0.0206 µg/mL.
